For the experiment, the target named is full-length wild type MOKV G (MOKV G WT) (Mokola virus) (UniProt P0C572). The experiment is described as follows: negative staining electron microscopy.

The values below come from paper PMC7082061 (PLoS Pathogens, 2020).

One may read the stoichiometry N as the number of molecules, sites or subunits per partner or assembly.

full-length wild type MOKV G (MOKV G WT), sequence (P0C572 20-522): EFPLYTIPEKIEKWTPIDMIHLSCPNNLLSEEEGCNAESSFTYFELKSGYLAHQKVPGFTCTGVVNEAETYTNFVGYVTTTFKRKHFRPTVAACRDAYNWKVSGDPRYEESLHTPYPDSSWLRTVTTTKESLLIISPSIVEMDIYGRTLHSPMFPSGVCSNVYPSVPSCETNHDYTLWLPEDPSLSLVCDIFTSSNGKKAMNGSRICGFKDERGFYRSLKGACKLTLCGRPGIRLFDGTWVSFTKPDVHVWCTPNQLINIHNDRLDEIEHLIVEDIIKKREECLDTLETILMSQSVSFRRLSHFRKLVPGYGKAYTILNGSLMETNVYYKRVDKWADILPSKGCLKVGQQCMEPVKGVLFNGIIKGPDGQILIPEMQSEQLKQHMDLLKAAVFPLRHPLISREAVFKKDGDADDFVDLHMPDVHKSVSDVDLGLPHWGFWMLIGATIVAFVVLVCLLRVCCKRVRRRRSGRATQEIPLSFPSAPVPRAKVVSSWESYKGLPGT

In turn, “full-length wild type MOKV G (MOKV G WT) (from UniProt P0C572 20-522) (natural protein)” registered a stoichiometry N of 3.
